From article PMC7585440, “Sclerostin inhibits Wnt signaling through tandem interaction with two LRP6 ectodomains” (Nature Communications, 2020)

Tests used:
[1] = biological target: T1, human LRP6 E1E2 (P21–P630) with a C-terminal 10× His tag (human, UniProt O75581 21-630); test: SEC; fluorescence-SEC: purified LRP6 E1E2–Smo-SOST complex injected at 1.5, 1, 0.5 or 0.1 µM on Superdex 200 Increase 10/300 GL; 20 mM Tris pH 7.0, 200 mM NaCl; intrinsic tryptophan fluorescence; approximate KD; settings: both partners purified
T1 construct: Low-density lipoprotein receptor-related protein 6 (LRP6), human, ectodomains E1 and E2, residues P21-P630; Unlabelled form: crystal, SEC-MALS and fluorescence-SEC; An anti-His-tag antibody was used for the western blots of the fluorescence-SEC experiment; also called LRP6 ectodomains 1 and 2; source: High Five insect cells (baculovirus), secreted, purified (Ni-NTA, HiTrapQ, SEC); co-expressed …
T1 sequence (looked up): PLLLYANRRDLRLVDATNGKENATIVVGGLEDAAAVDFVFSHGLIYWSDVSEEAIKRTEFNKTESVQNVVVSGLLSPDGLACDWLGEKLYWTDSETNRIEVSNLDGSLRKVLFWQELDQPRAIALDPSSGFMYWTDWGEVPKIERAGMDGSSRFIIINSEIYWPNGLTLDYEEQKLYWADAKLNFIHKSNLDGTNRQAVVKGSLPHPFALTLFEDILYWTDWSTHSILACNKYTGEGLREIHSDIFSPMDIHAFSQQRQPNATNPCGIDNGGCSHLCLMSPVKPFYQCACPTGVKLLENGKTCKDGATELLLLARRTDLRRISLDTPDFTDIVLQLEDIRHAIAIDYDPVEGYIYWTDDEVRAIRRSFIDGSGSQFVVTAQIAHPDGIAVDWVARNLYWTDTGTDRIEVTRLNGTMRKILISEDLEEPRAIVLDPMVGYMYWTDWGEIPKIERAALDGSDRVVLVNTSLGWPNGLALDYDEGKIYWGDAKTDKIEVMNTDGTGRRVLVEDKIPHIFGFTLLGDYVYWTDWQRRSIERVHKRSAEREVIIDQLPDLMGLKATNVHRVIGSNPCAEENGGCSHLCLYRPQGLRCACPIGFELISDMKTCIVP

[2] = biological target: T2, human LRP6 E1E2 with a C-terminal 10× His tag, labeled with the dye NT-647 (human, UniProt O75581 21-630, dye NT-647 (Monolith NT Protein Labeling kit)); test: MST; LRP6 E1E2 or E1 labeled with NT-647 at ~5 nM, unlabeled SOST proteins or peptides titrated; 20 mM Tris-Cl pH 7.0, 200 mM NaCl, 0.5 mg/ml BSA, 0.05% Tween 20; 22 °C; Monolith NT.115 Pico; settings: both partners purified
T2 construct: Low-density lipoprotein receptor-related protein 6 (LRP6), human, ectodomains E1 and E2; the limits P21-P630 are printed for the co-expression construct; the MST construct was cloned into another vector (pAcGP67A); also called Labeled LRP6 E1E2; source: High Five insect cells (pAcGP67A), purified (Ni-NTA, HiTrapQ, SEC), no tag cleavage; not shown: His10, C-terminal, kept
T2 sequence (looked up): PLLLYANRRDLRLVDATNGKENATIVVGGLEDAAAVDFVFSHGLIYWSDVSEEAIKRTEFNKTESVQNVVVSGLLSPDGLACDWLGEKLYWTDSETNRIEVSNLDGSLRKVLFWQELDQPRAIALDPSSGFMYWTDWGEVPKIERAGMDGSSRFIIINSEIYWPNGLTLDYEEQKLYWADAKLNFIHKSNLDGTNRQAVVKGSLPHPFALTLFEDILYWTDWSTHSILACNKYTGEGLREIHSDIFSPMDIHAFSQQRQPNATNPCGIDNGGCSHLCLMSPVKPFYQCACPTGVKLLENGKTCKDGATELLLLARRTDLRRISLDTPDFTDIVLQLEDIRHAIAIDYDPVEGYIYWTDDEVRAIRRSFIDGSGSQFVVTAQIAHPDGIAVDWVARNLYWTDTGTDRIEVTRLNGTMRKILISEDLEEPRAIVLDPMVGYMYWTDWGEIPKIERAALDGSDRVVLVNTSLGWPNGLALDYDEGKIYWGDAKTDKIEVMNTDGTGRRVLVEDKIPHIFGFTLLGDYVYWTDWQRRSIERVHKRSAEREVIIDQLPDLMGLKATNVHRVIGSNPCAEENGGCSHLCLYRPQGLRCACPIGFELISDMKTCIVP

Kd [1]: ~50 nM
Kd [2]: 170 nM
B1: human WT SOST with an N-terminal His6-SUMO tag (natural protein, UniProt Q9BQB4 24-213, looked up)
chain: QGWQAFKNDATEIIPELGEYPEPPPELENNKTMNRAENGGRPPHHPFETKDVSEYSCRELHFTRYVTDGPCRSAKPVTELVCSGQCGPARLLPNAIGRGKWWRPSGPDFRCIPDRYRAQRVQLLCPGGEAPRARKVRLVASCKCKRLTRFHNQSELKDFGTEAARPQKGRKPRPRARSAKANQAELENAY
notes: Sclerostin (SOST), human, wild type; Probably residues 24-213 (the truncated constructs begin at Q24 and the protein ends at Y213); Purified WT SOST ran as a doublet that PNGase F turned into one band (N175 likely glycosylated in part); also called Smo-SOST; SOST WT; source: High Five insect cells (pAcGP67A), purified (Ni-NTA, HiTrapQ, SEC), no tag cleavage; not shown: His6, N-terminal, kept; …
